Among the data in article PMC9769499 are binding values, retold here.

The target of this data set is T1, CzcR (Pseudomonas aeruginosa PAO1) (UniProt Q9RLJ1).
T1 sequence: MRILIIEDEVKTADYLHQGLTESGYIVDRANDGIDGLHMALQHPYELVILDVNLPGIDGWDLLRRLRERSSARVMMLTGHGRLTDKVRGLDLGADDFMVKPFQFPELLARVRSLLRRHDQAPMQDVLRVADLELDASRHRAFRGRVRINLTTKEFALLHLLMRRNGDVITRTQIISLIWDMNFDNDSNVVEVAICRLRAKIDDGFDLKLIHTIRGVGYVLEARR
Kind of data set: EMSA. The conditions noted are these: Thermo Scientific EMSA kit per manufacturer's instructions; buffer, salt, pH and temperature not stated.
Turning to “CATCTGCTTCATACCTTGTGTTGTCGTCTTCCCGGAACGCCCCTTCCAGCGCTCTCCGGTATTGGCGGGAACGATGCGCCATCGCTCCCGGCCCGGCGGAAGCCACCTTCGCTTCCGTCACCCGCGCCACGCGCGGTTCTTCCCACGTCCTCA (double strand) [PfleN]”, the binding entry was “binds”.

“CTGACTCATGACTCTTCCTCCAACAGCCGCGGCTTTTTTGACGCCGCCCGGCACTTTGCAGAGGAGTTAGCAACAAGGGTGCCAAGTCGGCCCCAAGGCCCGGCATCGGCGTTCGCCGCCAATGCCCGCGACCGCTGCAGGGTCCGTCCCTGCTCCGGTTATCGGCAGGCGCGCACGCTCGAACAG (double strand) [PfliE]”: the binding entry is “no binding”.

Consider “GACGTACAGCATCTTGTCCATCGAATCCTCCAGGCACCGGCACAATCCGCCGGGCTTTCTTGCAGGTTATCCAGCAAGCGCCGTGCCAGAATTCGAAAAAACAATTAATACATTGATTTAAAAGGATTTTATAAAACAGAAAGCCTCCTTTCGGAGGCTTCGGGGGCAA (double strand) [PflgF]”, for which the binding entry is reported as “binds”.

As to “GCAACCGTTCGGAACATTCTTCCCGTCGGGGGTAGGCGAGCGACTTGCCCTGTGGAATAATACTGTCTACTTATACAGTTGTTCGTGGCCGTCCGGCCGCCCTGACTTCGCGAGGACTTCAATGGA (double strand) [recA fragment (PrecA)]”, the binding result was “no binding”.

With “GCGCACATTGCTGATCAGTTGCGTGCGATCCACTCTCGACTCCCCTGCCCTGCGTATGGCGCCCGTGGGTGGGCGCCGAACAAACTTTTGACGCCGGAATGCGCGTCGGGCGGGTCATTGCAGGAACCGTTCCAACTTTTCAATTCATTGATTGAAAAGGGTTTTCGCCAA (double strand) [PflhA]”, the binding result was “no binding”.

For the sequence “GGTGATTTCCTCCAAAGGACCTATTTCGGTTACCTGAGCTTGCGATCTCTCGGCCTGCTTGCTCAGGTGCCCCAAGAATTCGCGTTCATGGTGTTTATCGGCGTTTCCCGGCGGAGCTTTAGAGAAAAAATCAACATTTTCTTTTTCTCTTCCTCTTCAGTGGGTTACATGCTTCGAAGAGGACTCGCCAATATCGGTCCTGAA (double strand) [PfliC]”, the binding entry was “no binding”.

Regarding “GTTCCAGGGGCTTGCCACCCTTGCCGGCAAGCGGAAGCGGCTTGCCGCTTGCCGCTTCCGGGTTACCCTTAAATAAACTCAAGTTATTGAATATAAAGGTTTTTAATAATTTGGCACGGGCCTTGCTGAAGTGTTGGCGACGAAAGCCACACCGGCAAACAGGTTCGCAGCCATGAGCATCAGTTTCGA (double strand) [PflgB]”, the binding result is recorded as “binds”.

For the sequence “TACACAGTGTCCTGTTCGAAACCCGCGCCTGACGCGCGGGTTGAACGACTTGGCATGGTGCTTGCCCTATCGAAGGGATAGGGCAGTACATGCACGGTTTTTTGACGGAGATGGATTATGGCCGGTATCTCGATAGGAGTA (double strand) [PfliD]”, the binding entry is recorded as “no binding”.

As for “TCATGGGTGTCGGGCTCGGTGTCGGCGAGGCGGCGAACTGGCTTTTCGAGTATTCGGACTATAGTCTTGCGGCTAGCAACCGATAACAAGAGGGAGCCTAGCAGTCCCCCTCCTTATCCTGTTCATTTCGCACGTCCGGTCCTCATGTCAAAAATCATCGGC (double strand) [PmotA]”, the binding result is listed as “no binding”.

As to “TTTCTTAGCCATGCCAAAAATCCGTCGCTATAGCGTCAAATGAAGGGTTTCACAGGGGCAGAGCAAGGGTTGTGCCATTTCTGCAACGCCGCCCCGCCTCCTGGGACCAGCCCCGGAGGGCTGTCCGAGATGATAGACGGCGCGGATATTACAGCCTGGCCACAGGAAATCATCCCCGTCTTTTGCGAAATTGCC (double strand) [PPA1442]”, the binding entry is given as “binds”.
